Measured values reported in the RNAGym collection of RNA variant scans (doi:10.1073/pnas.2313332121).

B1: TPR t1 (parent)
chain: GACCAAUCUGCCCUCAGAGCUCGAGAACAUCUUCGGAUGCAGAGGAGGCAGGCUUCGGUGGCGCGAUAGCGCCAACGUCCUCAACCUCCAAUGCAUCCCACCACAUGAUGAUGCCUGAAGAGCCUUGGUUUUUUG

Variants of: B1
Experiment: polymerase ribozyme fitness, log enrichment relative to wild type (log ratio); higher = more active; in vitro selection for triplet polymerase activity
Summary of the method: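 Fitness compares each genotype's enrichment to that of the wild type on a logarithmic scale, averaging replicates with inverse-variance weights. The logarithm is base 2. Enrichment came from Illumina sequencing of input and output libraries after one triplicate round of in vitro selection, which included frozen incubation at −7 °C, of PCR-built, transcribed mutant libraries of each subunit of a heterodimeric triplet polymerase ribozyme. Only genotypes with ≥10 input reads and ≥1 read per output were kept.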

Row | Variant | polymerase ribozyme fitness (log ratio)
1 | C13U A27G | -2.05
2 | C13G C80A C82G U130C | -4.35
3 | C13A C97A | -5.11
4 | C13A C97U | -2.68
5 | C13G C20U C64U C104A A111U U130G | -5.67
6 | C12U A43U C56G | -1.63
7 | C13A G47A C64U G93U C101G U131A | -5.14
8 | C12U C49A C76G C80G C88A U92C U112C | -7.46
9 | C13A A43C G44A G77A A83U | -4.05
10 | C12U A16G C73U C102A | -1.8
11 | C12U A46C C53G G71C A84C A95C | -2.46
12 | C13A G45U G69U | -1.92
13 | C13G A41U C72G C101U | -3.53
14 | C13U A46G G47U C82A | -1.52
15 | C13A U87A U106A | -2.48
16 | C12U G48A C115G U129A G135U | -2.25
17 | C13G G60A G77C U130C | -3.08
18 | C12U G69C U81C G110U | -3.57
19 | C13G G51C G61C C104U G120C | -6.03
20 | C12U A18G C20U C94U G117U | 0.203
21 | C12U A119C A121C | -2.21
22 | C13G A37U U38C | -2.77
23 | C13G C20U G48A | -3.29
24 | C13A U112G | -1.5

Row | Variant | polymerase ribozyme fitness (log ratio)
25 | C12U C56A G69A U129A | -5.35
26 | C12U C115U | -0.992
27 | C13A G48A C114U U129A | -5.75
28 | C13A A16U G120C | -0.322
29 | C12G U21A G71U U78A A121U | -0.676
30 | C13A U32C U109G G120C | -5.75
31 | C13G U59A C62G | -3.87
32 | C12U C99U | -2.6
33 | C12U G117C | -1.68
34 | C12U G117U | 0.316
35 | C12U G17U C94U G113A | -2.71
36 | C13U A91U | -0.839
37 | C12U C13U G42U G51C U116G | -7.04
38 | C12U A18C A29G C82U U92A | -3.51
39 | C13A C20U G61U | -2.05
40 | C13G G36A C40G | -4.55
41 | C13U A41U | -0.968
42 | C13G C72A U78G | -2.9
43 | C13G U54C C85U U87C | -1.99
44 | C13G C40U C49A C64A A100C C115U | -6.9
45 | C13A G52A U59C G113A | -3.69
46 | C12U A27G G47A G51A G58A G61C A103G A121G | -7.4
47 | C13U A27U C49A U130C U132C | -2.53
48 | C13A C22U | -4.99

Row | Variant | polymerase ribozyme fitness (log ratio)
49 | C13A C22A | -5.41
50 | C13A U21A A37C G93A | -2.9
51 | C12U G63U C85G C88A | -4.33
52 | C12U C13A C72G U78C | -1.57
53 | C12U A37U A119U | -0.00616
54 | C13G G47U U87A C88U G110U | -6.69
55 | C12U G48A U131A | -0.967
56 | C13G G45U C89A G120U U130A | -3.41
57 | C12U G60U | 0.415
58 | C13G U32C C53A C70G | -3.88
59 | C13U A18U U81G G117U | -6.34
60 | C12U A37U A111G C123A | -0.195
61 | C13A G44A G127C U131C | -2.25
62 | C12U C15U | -0.154
63 | C13A A46U A74U | -3.21
64 | C12U A27C C62A A83U | -6.02
65 | C13U A18U | -0.945
66 | C13U A29C G52U C104U G120A U131A | -2.05
67 | C12U A18U | -2.21
68 | C13A A46G G63C | -2.95
69 | C13G G36C C40U | -2.55
70 | C12U C13U C20A G47C C86U | -2.7
71 | C12U U78A A108U G120C | -5.26
72 | C13G U54C G63A A100U U109A U131G | -6.38

Row | Variant | polymerase ribozyme fitness (log ratio)
73 | C12U C22U U59C C89G U109A U116A C123G | -7.4
74 | C13A A103U A108U G117C U129A | -6.73
75 | C12U C72U U81G | -3.47
76 | C13A G60A | -1.95
77 | C12U G45A G48A | -0.563
78 | C13U A50C | -0.095
79 | C13A A16U G60U C88U A121G | 1.33
80 | C13A G44U C72U U78C G128A | -6.14
81 | C12U A27G C40U C56U C86U C102U | -3.62
82 | C13A G71A A74C G128A | -5.69
83 | C13G A41U C56U A121G | 0.91
84 | C12U A41U A50U G57C C76G C99U | -7.02
85 | C12U A43C A90U | -0.274
86 | C13G G36U A37G C80U | -5.7
87 | C13G C101U | -2.08
88 | C13A G61A C88A G110A | -2.92
89 | C13G A74C | -2.12
90 | C13G G60C | -1.52
91 | C13U A29U A46U C56A C97U | -3.44
92 | C12U C20U C40U C49G | -1.67
93 | C12U C20A C28U A37G G42A G45U A46U G48A C82U G110A A111U A119G | -4.23
94 | C13A A24G U32C C94U C104U G120A | -1.91
95 | C12U G39U G113U U116G | -5.84
96 | C13A C85U A100C | -3.76

Row | Variant | polymerase ribozyme fitness (log ratio)
97 | C12U G39A C72A A74G C79U C80G | -5.3
98 | C13U A121G | 2.04
99 | C12U C79U | 0.083
100 | C13A C73A G120A C123A | -0.951
101 | C13U A37C U55A | -0.3
102 | C12U G23A G120A | -3.8
103 | C13A A66U C101A | -4.3
104 | C13G C34U | -6.06
105 | C12U U14A C88G | -1.12
106 | C13U A83G | 0.0266
107 | C13G A37G G71U C102G A103U U112A G117U G127C U130G | -6.56
108 | C12U A111G | 0.95
109 | C12U A111U | -2.01
110 | C12U C104U | 0.248
111 | C13A G35A C124G | -3.52
112 | C13G C62G A66U G113U | -7.31
113 | C13A A29G C70U A95U C124A | -1.57
114 | C12U G17C G71A C97G C115G | -4.83
115 | C12U C15G C79A C85G G120A | -2.63
116 | C12U A16G C20U C64A A84U U112G G113U | -7.14
117 | C13G G52U G60A C104U C115G A121C | -3.16
118 | C12U C49G G61C | -1.89
119 | C13A G48A U109A G120C | -5.29
120 | C13A U96A | -2.64

Row | Variant | polymerase ribozyme fitness (log ratio)
121 | C13A C15U G44A C49U C73U C89A | -4.76
122 | C13A C115U | -3.06
123 | C13A C20U G61U C72U | -3.24
124 | C13A A16U G117U | -4.37
125 | C13G G117A | -1.95
126 | C12U C13U U38C C40A A91U | -3.21
127 | C13G G71U | -1.79
128 | C12U C22U U59C C85G | -4.46
129 | C12U C20U A43U G45A C56G G113A | 0.057
130 | C12U U33G A105U U112G U125A | -7
131 | C12U A37U G60C | -1.06
132 | C12G U54C G61C | -2.85
133 | C12U C49U G77A C97A C98A U109A A119U G127C | -6.68
134 | C13A A18G C49A C94U G117U | -6.43
135 | C13G G45A G48A G61C | -3.73
136 | C12U G128A | -1.59
137 | C13G C56G G69C C89A G117U | -6.43
138 | C13A C53A G120U U132C | -0.539
139 | C13A G120U | -0.457
140 | C12U C49U C97U | -1.6
141 | C12U U14G C79U | 0.109
142 | C13U A26U | -3.03
143 | C13A C89G C97U | -3.27
144 | C12U C13A C114G | -4

Row | Variant | polymerase ribozyme fitness (log ratio)
145 | C12G U33G C70U U87G A118U U125A | -5.53
146 | C12U U96G G128C | -2.88
147 | C13G A66U C79U C102A | -4.83
148 | C12U A37U C85U G93C G120A | 0.532
149 | C12U U14A C64U G110U G113A U130C | -4.16
150 | C12G U14G G52C G61A C82A C88A A118U | -2.32
151 | C13A C72G A83G A121U C123U | -0.305
152 | C13G G71C A91U | -3.97
153 | C12U A46U C49U G63C A90C | -4.26
154 | C13G A83C C94G A119U C123G G127C G135U | -3.17
155 | C13A U112G A121G | -1.42
156 | C12U C76G C79A C99U U126C | -5.59
157 | C13G G58A C70U A105C C124A G127A | -4.77
158 | C12U C13G C20A A37G A46U G77A G120A | -2.45
159 | C13G G120U | -0.586
160 | C13G G120C | 0.441
161 | C12U C56A C73A U78C A111G U129G | -1.25
162 | C13A A43C G93C | -5.21
163 | C13A G57A G127C | -3.7
164 | C12U G71A | -0.123
165 | C13U A37U | 0.687
166 | C12U U132A | 0.262
167 | C13G U32C A46U C70A C104U | -3.75
